Experimental data from paper PMC5718245.

Columns and labels:
[1] = molecular target: PSD95 PDZ3 (Rattus norvegicus) (UniProt P31016); settings: cited from earlier work
[2] = molecular target: GST-PDZ3 fusion protein (PDZ3 domain of SAP97); test: SPR; Biacore3000; anti-GST antibody immobilised, GST-PDZ3 captured (1200-1700 RU), GST on the reference cell subtracted; peptides as analytes at 62.5 nM to 12.8 µM, 30 µl/min; HBS (0.01 M HEPES, 0.15 M NaCl, 3 mM EDTA, 0.005% Surfactant P20); steady-state affinity fit, 1:1 model

UniProt P31016, sequence (P31016 310-396): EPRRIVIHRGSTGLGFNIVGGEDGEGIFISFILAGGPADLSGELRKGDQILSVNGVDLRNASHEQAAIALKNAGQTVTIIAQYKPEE

| Kd [2] [µM] | Molecule | Kd [1] [µM] |
| --- | --- | --- |
| – | CRIPT C-terminal 9 amino acids (from UniProt Q792Q4) | 1 |
| 6.57 | AMCGKKVLDTKNYKQTSV [peptide CHRK1 (C-terminal 18 amino acids of CRIPT)] | – |
